Source: the DeepSol protein solubility set

Experiment: soluble on expression in E. coli; label from the status in PepcDB or PDB records

Row | Sequence | soluble on expression in E. coli
1 | MGSDKIHHHHHHMEPEASPLFIDFAGISAGEKILDVGCGTGSLTFALLKAADLKEITAIDDSPVFVAETIRRSTDPRIKVEQGDACALAFDDGAFDRALALLVLHFVTDAGKAVAEMRRVVRPGGVVAASVWDHLGGMPGMRMMVDTVAALSEAGRQFRERYCFQPMMRPGEMKATFIEQGLLQVSETQLMIRMDYSNFDDYWSPMVAGEGPFGKFLSSLDAPDRARAEAAVREAYQAGQPDGPRSFANVAWACRGIAP | not soluble
2 | MSLKGIVEKSVGDLETLAFDGRTYIEYLNAVTESEKALQSNHFELSLRTEATQGLVLWIGKVGERADYMALAIVDGHLQLSYDLGSQPVVLRSTVKVNTNRWLRVRAHREHREGSLQVGNEAQVTGSSPLGATQLDTDGALWLGGMQKLPVGQALPKAYGTGFVGCLRDVVVGHRQLHLLEDAVTKPELRPCPTEGHHHHHH | soluble
3 | MGVSLSKGGNVSLTKEAPGLTAVIVGLGWDIRTTTGTDFDLDASALLLNSGGKVASDAHFIFFNNLKSPDGSVEHTGDNITGEGEGDDEQIKINLATVPADIEKIVFPVSIYDAENRQQSFGQVRNAFIRVVNQAGEAEIARYDLSEDASTETAMVFGELYRHGAEWKFRAIGQGYASGLRGIAQDFGVNV | soluble
4 | MNLDQELAEIRASSSDHTNYFYSSERREHMFDKVLTPSDVGKLNRLVIPKQHAENFFPLEDNQNGTVLDFQDKNGKMWRFRYSYWNSSQSYVMTKGWSRFVKEKKLFAGDTVSFYRGYIPDDNAQPERRRKIMFIDWRPRAEINFVHNINNHNFVFGSPTYPTARFYPVTPEYSMPYRSFPPFYQNQFQEREYLGYGYGRVVNGNGVRYYAGSPLDQHHQWNLGRSEPLVYDSVPVFPAGRVPPSAPPQPSTTKKLRLFGVDVEESSSSGDTRGEMGVAGYSSSSPVVIRDDDQSFWRSPRGEMASSSSAMQLSDDEEYKRKGKSLEL | soluble
5 | SSENLDKSNVNEAGKSKSNDSEEGLEDAVEGADEALQKAIKSDSSSPQRVQRPHSSPPRFVTVEELLETARGVTNMALAHEIVVNGDFQIKPVELPENSLKKRVKEIVHKAFWDCLSVQLSEDPPAYDHAIKLVGEIKETLLSFLLPGHTRLRNQITEVLDLDLIKQEAENGALDISRLAEFIIGMMGTLCAPARDEEVKKLKDIKEIVPLFREIFSVLDLMKVDMANFAISSIRPHLMQQSVEYERKKFQEILERQPNSLDFVTQWLEEASEDLMTQKYKHALPVGGMAAGSGDMPRLSPVAVQNYAYLKLLKWDHLQRPFPETVLMDQSRFHELQLQLEQLTILGAVLLVTFSMAAPGISSQADFAEKLKMIVKILLTDMHLPSFHLKDVLTTIGEKVCLEVSSCLSLCGSSPFTTDKETVLKGQIQAVASPDDPIRRIMESRILTFLETYLASGHQKPLPTVPGGLSPVQRELEEVAIKFARLVNYNKMVFCPYYDAILSKILVRS | soluble
6 | LESLLTLPLAGEARVRILQITDTHLFAQKHEALLGVNTWESYQAVLEAIRPHQHEFDLIVATGDLAQDQSSAAYQHFAEGIASFRAPCVWLPGNHDFQPAMYSALQDAGISPAKRVFIGEQWQILLLDSQVFGVPHGELSEFQLEWLERKLADAPERHTLLLLHHHPLPAGCSWLDQHSLRNAGELDTVLAKFPHVKYLLCGHIHQELDLDWNGRRLLATPSTCVQFKPHCSNFTLDTIAPGWRTLELHADGTLTTEVHRLADTRFQPDTASEGY | soluble
7 | MDLDLIQDLPILNFPPAIKIRANTNRDDDGGGCTTPTSSDHKIPPTTATTPPPPPQKPRPPSTPSSLGIRSCKRKLMTSLSKYEIIVNKDEIERFFSSVYNQTMASSTTTAITVAKRRRSFRSCSRR | not soluble
8 | MGSDKIHHHHHHMEVNRLSALTPPMGWNSWDCYGASVTEEEVLGNAEYMANHLKKYGWEYIVVDIQWYEPTANSSAYNPFAPLCMDEYGRLLPATNRFPSAKNGAGFKPLSDAIHDLGLKFGIHIMRGIPRQAVYENSPVLGSTKTAREIAHTNSICPWNTDMYGVDPTKEGAQSYYNSLFELYAQWGVDFVKVDDIAASRLYDTHLEEIKMIQRAIQACGRPMVLSLSPGPAPIKYAHHFKTNANMWRITDDFWDDWSLLYQMFERCEVWEKHIGTGHWPDCGMLPLGHIGIRSVDGPGGDRWTRFTKDEQLTMMNLWAICHSPLMFGGELRDNDEWTLSLLTNEGILSINQKSVLNRFVYREEDKVAWAANGRNGEAYVALFNLHDQQKTLQFRLDMVGIMETVQLFNVWDRSFLQSLAPSESFQIELKPHQSMMLKLSPDR | not soluble
9 | MTVNAKTSPSAGNTWRDLPAAQQPEYPDTEALRAVIADLESYPPLVFAGECDQLRARMAAVAKGEAFLLQGGDCAEAFDAVSADHIRNKLKTLLQMGAVLTYAASVPVVKVGRIAGQYSKPRSKPTETRDGVTLPTYRGDSVNGFDFTEAARIPDPERLKRMYHASASTLNLVRAFTTGGYADLRQVHAWNQDFVKSSPSGQRYEQLAREIDNALNFMRACGTDPAEFQTVEFFSSHEALLLDYESALTRVDSRTGQLYDVSGHMVWIGERTRQLDHAHIEFASRIRNPIGIKLGPSTTAEEALQYIERLDPEREPGRLTFIVRMGADKIRDKLPELVEKVTASGATVAWITDPMHGNTYEAASGHKTRRFDDVLDEVKGFFEVHKSLGTHPGGIHVELTGDDVTECVGGGDEIFVDDLHQRYETACDPRLNRSQSLDLAFLVAEMYRDQ | not soluble
10 | MAKGQNAPIRRRTLTRDKVVDAAIEIIDEHGWEQLSMTSLSARLNVVTASLYNHVRNLDDIRGAVQVRTMTELGAHLREIAMGRTGPDGLRALVDAHRAWATQHPHRYQTLTTSPVDRDAFISAALDANTALRTMLASCGLPPEDTLDAAVSIFAAMHGFVMLVNTDFLGDELDLDSIYESVLRGALSSVGWPERTHTPS | not soluble
11 | MLTQQQIDHIYDSLGCPLHFLWSYIGTAHGLSHDQADPDSFEERKKDFFFIVGKLLDDGLLKLGNRKTELIMEGNIEELVEMFRKSLPASDEEIDQEVGGLWFFTDCPFVAAWVYKGAGENGEDEYDWC | not soluble
12 | MAHHHHHHMTAYPFPIIDVSPLYQNTGAVMEVAKKIDEACRTWGFFYVVGHPIPRERFQELSRMARKFFSLPLEEKLQIDIKKSRHHRGYGEVNAEQLDPSAPNDHKETFDMGCHLPEDHPDVVAGKPLRGPNRHPTQLEGWRELMETHYREMQHFALVLLRALAVAIGIEEDFFVPRFVEPLSVFRMIHYPALPKTKEGRLVCGEHTDYGIITLLFQDTNGGLQVRDLSGEWIDAPPLEGSFVVNIGDMMNMWSNNRYRSTPHRVVNPGVDRISMPFFCEPNPNVVIKCLENCHSAENPAKYPPVKASDWLQKRFAQTYAYRKSML | soluble
13 | MFRQLSELYISTLKEAKERSPPNFDDTPRGLLLALIKDRPTIWNSSARLTKDDVLASFQQCSAILSNMDPGYSIWAVIEKWCWVVESYVRCSVTAPPSEWRYNNTLDYLKQFATTSYPYLGCLSKKRRNELTKLYNDPEINVVMQKTEEIEFPVGIFRDEMLYLSGEDHLMQYDLELRTVGQVVNAKRRGRPSKVDKRSPVDNFYNLTPQSAQFQKLLESNMSSAFSIAFAESELIPDDLGFSPAMYMALIDMIQDKPELWQSNHPQKDNLQAQEQLFEDFGKQLIIKFRDTADISVLEKLTGPYVHLVWERLLEKFKEEDSLETVSKWKYYQVGSAGLSARLAIASPSGSSQSEDSRMAASSPSTAFIGMPTTINGNKSIQTVLDNLIAARSKKEDHAASTTSVLQAPNYSELKQMLEKNNILKVDNENGPPLKRVKQEIESPPGSSRMIVYNDTRKTTNAPISTWVPPREDLTAKVKDETVQSVPQRKAQATAVIKSGFPLEKHLKKQAVPSMIPVTSSSIPQRNGILGLNSMILPPSAIQQALLKKMDVPTTTPSMSSTSSSQAQSSMNGVINGNNTEVEDKWTLLGRMIAMMAREIETRDPMSACELTRDLQQVIFQYNMKTLRPKENNSSSSSQ | not soluble
14 | MTEALELGDCLLSGAVGLVVKRRSGIAEDVARLVVKELVESGVEVLVDETVDYPSLSGFPRFSISRDPPGRVVVVGGDGTLLRTFLRLGERESPLFMTIKAGKKGFLLDVERYEAVERLRDFLEGRFREVVYPRYRVYLEGEARACMFNDTAVTANNAKMARVHVFVDGDLAMNIDGDGVVVSTTAGSTAYSLSGGGPIIDPRLDVIVLTPLNPVQLFLRSIVVPSGSRVTVEASVYSNPLVVNIDGQYVYELEPGGIVDIERCGSGVRIARFRWWEDYYERLYTRLLAYWAAALEHHHHHH | not soluble
15 | MGSDKIHHHHHHMIHIKRAPDTETAYLVMKEGFSDYMIPLGLSPEVFQERILERDGNQLEHSFIAYHGERPVAIWLNGLKTIKKKTVMRCGGLAVDPQYRRLGIAKALYDAQLSYAKSLNVDCLMLEVIQGNEPAITLYKSFGYQTVSELGYFHKEESGQVEPLVEIDQVAFERRYIQQDEYIWQQDPGVMKLAKARYYELDGAFIAAVNESIFAILTDEEEVARVATEATRRLAGELYHLQSTNQQVWEELLKAGWQQRDLKQFIMQKPISV | not soluble
16 | MAISDSYLKSCLGRERDKVEEKADRDGLWVRISKKGAVTFFYRFRFLGKQDKMTIGSYPEFGLKAAREEVTKWAAILARGENPRIRQSLDKAKINSQYTFEELFREWHAMVCVQKETSDQILRSFELHVFPKLGKYPAHQLTLHNWLTVLDRLAQGYTEITRRVISNGRQCYSWAVKRQLLEVNPLSEMSGRDFGIQKKMGERTLDRKEIAIVWRAIEDSRLIERNKILYKLSLIWACRVGELRQAEVSHFDFEEGVWTVPWENHKTGRKSKKPIIRPIIPEMLPLIQRAIELAPGRFVFSKYADKPMSEGFHMSISSNLVKFMLKAYNEQVPHFTIHDLRRTARTNFSELTEPHIAEMMLGHKLPGVWSVYDKYTYIEEMREAYSKWWARLMSIIEPDVLEFTPRQTG | not soluble
17 | MSFTTISVIGLGYIGLPTAAAFASRQKQVIGVDINQHAVDIINRGEIHIVEPALGNVVKMAVEGGFLRATTTPVEADAYLIAVPTPFKGDHDPDMAYVEAAAKSIAPVLKKGALVILESTSPVGATEQMAGWLAGMRTDLTFPQQAGEQADVNIAYCPERVLPGQVMVELIKNDRVIGGMTPVCSARASALYKIFLEGECVVTNSRTAEMCKLTENSFRDVNIAFANELSLICAEQGINVWELIRLANRHPRVNILQPGPGVGGHCIAVDPWFIVAQNPQQARLIRTAREVNDGKPHWVVDQVKAAVTDCLAATDKRASEVKIACFGLAFKPNIDDLRESPAMGIAQSIARWHSGETLVVEPNIRQLPKKLDGLCTLAKLDAALAAADVLVMLVDHDEFKAIPGDAVHQRYVVDTKGVWR | soluble
18 | MCENEEYRERFPDKHFDLETVLQAKVRPICVVPERTFIGFFHREKSKEEEEKEDVSLDFLKGVMSFDSIWEEIMKQEPEESASEHVIYIVSWNDHYFVLLVNHDAYYIIDTLGERVYEGCNQAYVLKFDQDAEIKRLPSVIKDNKADMGSQKQGGKNKYEQPERSKESEEQGEEVVVCRGKESCREYIKSFLAAIPIQQVKADMKEGLVSSFHHRLQIELYYTKHLHHRQPNMFESSTTKVTVSEATVSMTVAWLLASQFSNSGGFGCEMAELLGIKV | soluble
19 | MDLHLKNLFGRFQEQFGSGPGLGPGSGVCLMIVEGISSNIIQSIFRASASLYSSEPWKRLRPGHLFGVRVGKDSDWSGKRQPFQCVQFIGGDGGDIAIYMYRSMSYALKMTDGDSWEMARDPNVEVFRVTYELESLMLPSNKRMVKSLSLEVSGTDRFPIMDVARCMTSGELQFRSPTLEELRLVFAVMKALSLVHPLLLQEEKQVRGLPRMIKFSPFIETVDVQWPSEMGKGHDFVAVTVSHPPGQSYEQKREDDELEIVSGMTA | soluble
